{"source": "patent US20220003777", "key": {"[1]": {"target": "T1, fetuin, P12763", "T1 chain": "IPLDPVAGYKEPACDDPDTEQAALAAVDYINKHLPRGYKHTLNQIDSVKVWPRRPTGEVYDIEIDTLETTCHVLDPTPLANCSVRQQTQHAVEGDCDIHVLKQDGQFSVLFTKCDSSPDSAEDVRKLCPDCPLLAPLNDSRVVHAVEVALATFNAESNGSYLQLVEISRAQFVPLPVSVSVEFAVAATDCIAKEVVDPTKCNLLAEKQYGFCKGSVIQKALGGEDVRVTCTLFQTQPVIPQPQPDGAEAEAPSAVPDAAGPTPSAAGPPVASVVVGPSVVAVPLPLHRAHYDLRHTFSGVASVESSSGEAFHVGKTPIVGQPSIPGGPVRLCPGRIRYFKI"}, "[2]": {"target": "T2, CD43, recombinant, P16150", "T2 chain": "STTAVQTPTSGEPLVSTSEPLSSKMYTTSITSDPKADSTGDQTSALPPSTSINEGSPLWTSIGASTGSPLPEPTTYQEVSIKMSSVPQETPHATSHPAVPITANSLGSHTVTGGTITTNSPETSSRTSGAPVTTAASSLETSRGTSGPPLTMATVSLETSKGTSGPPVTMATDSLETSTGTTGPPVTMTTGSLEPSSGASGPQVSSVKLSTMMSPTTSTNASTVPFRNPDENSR"}, "[3]": {"target": "T3, C1 esterase inhibitor, human plasma-derived, P05155", "T3 chain": "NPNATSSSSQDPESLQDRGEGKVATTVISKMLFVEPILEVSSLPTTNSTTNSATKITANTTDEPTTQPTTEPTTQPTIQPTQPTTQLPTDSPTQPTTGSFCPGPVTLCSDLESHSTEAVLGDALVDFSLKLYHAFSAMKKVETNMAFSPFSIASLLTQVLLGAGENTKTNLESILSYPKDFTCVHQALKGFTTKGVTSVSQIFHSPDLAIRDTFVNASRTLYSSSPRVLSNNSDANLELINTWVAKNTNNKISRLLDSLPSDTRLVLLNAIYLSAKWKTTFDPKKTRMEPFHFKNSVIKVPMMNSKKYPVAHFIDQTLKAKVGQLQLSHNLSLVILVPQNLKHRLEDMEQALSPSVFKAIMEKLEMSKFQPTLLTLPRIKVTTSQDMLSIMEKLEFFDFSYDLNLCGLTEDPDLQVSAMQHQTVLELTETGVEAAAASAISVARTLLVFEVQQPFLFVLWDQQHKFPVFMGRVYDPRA"}, "[4]": {"target": "T4, Syncam-1, recombinant, Q9BY67", "T4 chain": "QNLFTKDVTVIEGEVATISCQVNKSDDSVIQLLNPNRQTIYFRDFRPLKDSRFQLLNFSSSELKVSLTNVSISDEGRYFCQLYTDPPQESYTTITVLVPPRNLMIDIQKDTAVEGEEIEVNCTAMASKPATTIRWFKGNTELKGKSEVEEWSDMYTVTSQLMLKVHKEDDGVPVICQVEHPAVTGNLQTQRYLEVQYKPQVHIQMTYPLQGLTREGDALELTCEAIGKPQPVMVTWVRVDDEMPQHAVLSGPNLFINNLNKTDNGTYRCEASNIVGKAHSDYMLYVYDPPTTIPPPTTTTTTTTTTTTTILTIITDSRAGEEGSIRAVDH"}, "[5]": {"target": "T5, synthetic glycopeptide RPPIT*QSSL", "T5 chain": "RPPITQSSL"}, "[6]": {"target": "MUC16, native human (cell lines, cell lysates and supernatants, cancer patient ascites), Q8WXI7"}, "[7]": {"target": "T6, PSGL-1, recombinant, Q14242", "T6 chain": "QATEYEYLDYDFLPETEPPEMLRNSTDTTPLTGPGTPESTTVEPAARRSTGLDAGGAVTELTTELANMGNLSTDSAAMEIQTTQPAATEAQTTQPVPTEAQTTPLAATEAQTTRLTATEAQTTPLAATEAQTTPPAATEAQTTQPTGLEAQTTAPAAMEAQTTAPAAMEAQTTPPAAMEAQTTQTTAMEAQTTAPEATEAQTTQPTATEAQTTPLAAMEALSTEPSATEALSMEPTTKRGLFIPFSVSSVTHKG"}, "[8]": {"target": "T7, podocalyxin, recombinant, O00592", "T7 chain": "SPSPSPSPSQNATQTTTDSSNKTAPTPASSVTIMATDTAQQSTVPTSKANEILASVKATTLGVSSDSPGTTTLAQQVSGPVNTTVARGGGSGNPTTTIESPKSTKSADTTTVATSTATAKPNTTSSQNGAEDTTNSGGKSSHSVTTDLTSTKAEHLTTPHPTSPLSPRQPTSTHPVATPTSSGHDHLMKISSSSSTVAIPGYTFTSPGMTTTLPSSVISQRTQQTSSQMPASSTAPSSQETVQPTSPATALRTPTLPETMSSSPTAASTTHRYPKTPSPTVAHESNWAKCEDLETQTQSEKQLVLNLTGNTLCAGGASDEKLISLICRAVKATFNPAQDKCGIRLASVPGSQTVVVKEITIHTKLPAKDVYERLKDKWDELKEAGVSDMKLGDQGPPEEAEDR"}, "[9]": {"target": "T8, recombinant human MUC16, Q8WXI7", "T8 chain": "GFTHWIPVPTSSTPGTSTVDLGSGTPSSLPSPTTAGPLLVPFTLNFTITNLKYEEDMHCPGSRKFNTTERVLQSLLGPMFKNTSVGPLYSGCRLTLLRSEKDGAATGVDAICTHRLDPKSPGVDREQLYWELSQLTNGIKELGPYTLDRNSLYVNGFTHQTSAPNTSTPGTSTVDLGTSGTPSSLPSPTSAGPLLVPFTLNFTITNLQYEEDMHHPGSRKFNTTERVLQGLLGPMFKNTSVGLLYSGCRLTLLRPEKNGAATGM"}, "[10]": {"target": "T9, CD45, recombinant, P08575", "T9 chain": "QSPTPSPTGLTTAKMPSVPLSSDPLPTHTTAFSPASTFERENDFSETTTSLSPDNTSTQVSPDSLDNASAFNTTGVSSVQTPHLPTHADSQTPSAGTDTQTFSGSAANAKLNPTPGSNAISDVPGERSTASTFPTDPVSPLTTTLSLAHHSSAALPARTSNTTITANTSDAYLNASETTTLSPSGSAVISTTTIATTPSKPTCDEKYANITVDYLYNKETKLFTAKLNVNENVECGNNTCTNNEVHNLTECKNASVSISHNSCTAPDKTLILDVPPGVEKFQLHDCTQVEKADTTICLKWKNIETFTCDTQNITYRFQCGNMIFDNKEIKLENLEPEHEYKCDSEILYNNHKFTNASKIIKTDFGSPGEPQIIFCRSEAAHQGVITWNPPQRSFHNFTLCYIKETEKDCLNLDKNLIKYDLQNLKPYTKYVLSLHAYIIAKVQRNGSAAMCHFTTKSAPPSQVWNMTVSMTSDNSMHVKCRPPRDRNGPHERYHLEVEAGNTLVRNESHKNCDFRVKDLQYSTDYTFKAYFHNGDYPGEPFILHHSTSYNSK"}, "[11]": {"target": "bovine serum albumin, P02769", "sequence (P02769 25-607)": "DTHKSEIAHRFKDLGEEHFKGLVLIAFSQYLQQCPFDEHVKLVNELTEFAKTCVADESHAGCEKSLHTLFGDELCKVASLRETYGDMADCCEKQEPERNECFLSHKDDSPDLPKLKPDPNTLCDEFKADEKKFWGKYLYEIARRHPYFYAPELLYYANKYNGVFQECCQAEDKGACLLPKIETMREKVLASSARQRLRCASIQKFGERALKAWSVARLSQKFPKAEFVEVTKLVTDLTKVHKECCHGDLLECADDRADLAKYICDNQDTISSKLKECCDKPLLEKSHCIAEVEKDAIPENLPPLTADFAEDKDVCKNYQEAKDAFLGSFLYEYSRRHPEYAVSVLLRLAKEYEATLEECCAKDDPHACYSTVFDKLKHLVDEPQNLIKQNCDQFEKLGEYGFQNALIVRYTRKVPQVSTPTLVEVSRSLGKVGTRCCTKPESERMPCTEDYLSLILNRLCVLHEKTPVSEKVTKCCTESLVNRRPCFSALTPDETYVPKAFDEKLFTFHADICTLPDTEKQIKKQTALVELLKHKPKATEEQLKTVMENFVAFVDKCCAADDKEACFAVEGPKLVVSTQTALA"}}, "data": [{"protein": "Secreted Protease of C1 Esterase Inhibitor (StcE), recombinant N-terminal His-tagged (protein) ADNNSAIYFNTSQPINDLQGSLAAEVKFAQSQILPAHPKEGDSQPHLTSLRKSLLLVRPVKADDKTPVQVEARDDNNKILGTLTLYPPSSLPDTIYHLDGVPEGGIDFTPHNGTKKIINTVAEVNKLSDASGSSIHSHLTNNALVEIHTANGRWVRDIYLPQGPDLEGKMVRFVSSAGYSSTVFYGDRKVTLSVGNTLLFKYVNGQWFRSGELENNRITYAQHIWSAELPAHWIVPGLNLVIKQGNLSGRLNDIKIGAPGELLLHTIDIGMLTTPRDRFDFAKDKEAHREYFQTIPVSRMIVNNYAPLHLKEVMLPTGELLTDMDPGNGGWHSGTMRQRIGKELVSHGIDNANYGLNSTAGLGENSHPYVVAQLAAHNSRGNYANGIQVHGGSGGGGIVTLDSTLGNEFSHEVGHNYGLGHYVDGFKGSVHRSAENNNSTWGWDGDKKRFIPNFYPSQTNEKSCLNNQCQEPFDGHKFGFDAMAGGSPFSAANRFTMYTPNSSAIIQRFFENKAVFDSRSSTGFSKWNADTQEMEPYEHTIDRAEQITASVNELSESKMAELMAEYAVVKVHMWNGNWTRNIYIPTASADNRGSILTINHEAGYNSYLFINGDEKVVSQGYKKSFVSDGQFWKERDVVDTREARKPEQFGVPVTTLVGYYDPEGTLSSYIYPAMYGAYGFTYSDDSQNLSDNDCQLQVDTKEGQLRFRLANHRANNTVMNKFHINVPTESQPTQATLVCNNKILDTKSLTPAPEGLTYTVNGQALPAKENEGCIVSVNSGKRYCLPVGQRSGYSLPDWIVGQEVYVDSGAKAKVLLSDWDNLSYNRIGEFVGNVNPADMKKVKAWNGQYLDFSKPRSMRVVYK", "values": [{"measurement": "cleavage of substrate (gel shift)", "setting": "[1]", "result": "did not cleave"}, {"measurement": "cleavage of substrate (gel shift)", "setting": "[2]", "result": "cleaved all tested mucin-like glycoproteins"}, {"measurement": "cleavage of substrate (SDS-PAGE, glycoprotein stain)", "setting": "[3]", "result": "active against C11NH"}, {"measurement": "cleavage of substrate (gel shift)", "setting": "[4]", "result": "cleaved all tested mucin-like glycoproteins"}, {"measurement": "cleavage of synthetic glycopeptide (MS)", "setting": "[5]", "result": "StcE cleaved a synthetic peptide containing a single GalNAc"}, {"measurement": "cleavage in ascites fluid (anti-MUC16 Western blot)", "setting": "[6]", "result": "dose-dependent decrease in apparent molecular weight"}, {"measurement": "cleavage of substrate (gel shift)", "setting": "[7]", "result": "cleaved all tested mucin-like glycoproteins"}, {"measurement": "cleavage of substrate (gel shift)", "setting": "[8]", "result": "cleaved all tested mucin-like glycoproteins"}, {"measurement": "cleavage of substrate (gel shift)", "setting": "[9]", "result": "cleaved all tested mucin-like glycoproteins"}, {"measurement": "cleavage of substrate (gel shift)", "setting": "[10]", "result": "cleaved all tested mucin-like glycoproteins"}, {"measurement": "cleavage of substrate (gel shift)", "setting": "[11]", "result": "did not cleave"}]}]}
